Assay results reported in patent publication US20100226906.

Tests used:
[1] = target: T1, synthetic gamma poly-glutamate peptide of 30 D-glutamate residues
T1 chain: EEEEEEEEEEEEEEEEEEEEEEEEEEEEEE

[2] = target: T2, synthetic gamma poly-glutamate peptide of 30 L-glutamate residues
T2 chain: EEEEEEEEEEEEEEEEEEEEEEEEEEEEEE

[3] = target: T3, synthetic gamma poly-glutamate 30mer containing both D- and L-glutamate (15 D- and 15 L-residues) (not fully specified)
T3 chain: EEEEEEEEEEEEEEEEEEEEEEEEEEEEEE

B1: recombinant poly-γ-glutamate hydrolase (PghP) of bacteriophage φNIT1 (protein)
chain: MAQTDTYPNIEALENAETVGVAYNIEVKRQNPSMIYFSPHAGGIEVGTTELIYRVVELTGGSLYLFQGLLPSGNSRLHVTSTHFDEPMAVCMLSKHTDAVSFHGYKDDYNKNTLVGGLNTELRNLIVSKLNSKGIAAEVATDRFTATDPDNIVNRCASGKGVQLEISSAQRRAFFQNNDWSKANRGNVTQEFLDYAEAIKEAEAEYYG
Question: Which results are given for B1?
Answer: hydrolysis of synthetic 30mer (digestion with purified enzyme, SDS tricine PAGE) [1]: No hydrolysis of the D-polyglutamate was seen; hydrolysis of synthetic 30mer (digestion with purified enzyme, SDS tricine PAGE) [2]: complete hydrolysis of L- and 30mers containing both D- and L-was observed; hydrolysis of synthetic 30mer (digestion with purified enzyme, SDS tricine PAGE) [3]: complete hydrolysis of L- and 30mers containing both D- and L-was observed
